According to publication PMC12102759 (2025):

B1: RNF115 peptide 69-84 (E3 ubiquitin-protein ligase RNF115), 16-mer library wild type / MDM2 SWIB (MDM2 SWIB/MDM2 domain, residues 17-125) (parent complex)
chain 1: THFAELWGHLDHTMFF
chain 2: SQIPASEQETLVRPKPLLLKLLKSVGAQKDTYTMKEVLFYLGQYIMTKRLYDEKQQHIVYCSNDLLGDLFGVPSFSVKEHRKIYTMIYRNLVVVNQQESSDSGTSVSEN
B2: MXI1 peptide 6-21 (Max-interacting protein 1), 16-mer library wild type / SIN3A PAH2 (SIN3A PAH domain, residues 295-383) (parent complex)
chain 1: MINVQRLLEAAEFLER
chain 2: SLQNNQPVEFNHAINYVNKIKNRFQGQPDIYKAFLEILHTYQKEQRNAKEAGGNYTPALTEQEVYAQVARLFKNQEDLLSEFGQFLPDA

Variants of: B1
Assay: proteomic peptide phage display deep mutational scan (ProP-PD DMS): M13 P8 16-mer library selected against immobilised GST-tagged bait for four days (rounds), NGS of the eluted pools per day and pseudo-replica; bait immobilised on MaxiSorp plates (10 µg), library pre-cleared on GST, 2 h binding at 4 °C, five washes; one round per day, days 1-4; value from days 2 and 3

| Variant | screen value |
| --- | --- |
| chain 1 L6I | 0.000313 average fractional NGS count over selection days 2 and 3 (reads of this peptide / all reads for the bait, averaged over … |
| chain 1 L6Q | 0.000157 average fractional NGS count over selection days 2 and 3 (reads of this peptide / all reads for the bait, averaged over … |
| chain 1 L6W | 0.000846 average fractional NGS count over selection days 2 and 3 (reads of this peptide / all reads for the bait, averaged over … |
| chain 1 L6Y | 0.00417 average fractional NGS count over selection days 2 and 3 (reads of this peptide / all reads for the bait, averaged over … |
| chain 1 L6H | 0.00174 average fractional NGS count over selection days 2 and 3 (reads of this peptide / all reads for the bait, averaged over … |
| chain 1 H12I | 0.000167 average fractional NGS count over selection days 2 and 3 (reads of this peptide / all reads for the bait, averaged over … |
| chain 1 H12K | 0.00015 average fractional NGS count over selection days 2 and 3 (reads of this peptide / all reads for the bait, averaged over … |
| chain 1 H12A | 0.00464 average fractional NGS count over selection days 2 and 3 (reads of this peptide / all reads for the bait, averaged over … |
| chain 1 E5Q | 0.00197 average fractional NGS count over selection days 2 and 3 (reads of this peptide / all reads for the bait, averaged over … |
| chain 1 T1N | 0.000471 average fractional NGS count over selection days 2 and 3 (reads of this peptide / all reads for the bait, averaged over … |
| chain 1 T1L | 0.000174 average fractional NGS count over selection days 2 and 3 (reads of this peptide / all reads for the bait, averaged over … |
| chain 1 T1Q | 0.00081 average fractional NGS count over selection days 2 and 3 (reads of this peptide / all reads for the bait, averaged over … |
| chain 1 T1P | 0.00338 average fractional NGS count over selection days 2 and 3 (reads of this peptide / all reads for the bait, averaged over … |
| chain 1 T1A | 0.00514 average fractional NGS count over selection days 2 and 3 (reads of this peptide / all reads for the bait, averaged over … |
| chain 1 T1I | 0.000116 average fractional NGS count over selection days 2 and 3 (reads of this peptide / all reads for the bait, averaged over … |
| chain 1 T1S | 0.00105 average fractional NGS count over selection days 2 and 3 (reads of this peptide / all reads for the bait, averaged over … |
| chain 1 T13S | 0.0255 average fractional NGS count over selection days 2 and 3 (reads of this peptide / all reads for the bait, averaged over … |
| chain 1 T13I | 0.00105 average fractional NGS count over selection days 2 and 3 (reads of this peptide / all reads for the bait, averaged over … |
| chain 1 T13K | 0.000352 average fractional NGS count over selection days 2 and 3 (reads of this peptide / all reads for the bait, averaged over … |
| chain 1 T13N | 0.00271 average fractional NGS count over selection days 2 and 3 (reads of this peptide / all reads for the bait, averaged over … |
| chain 1 T13L | 0.00319 average fractional NGS count over selection days 2 and 3 (reads of this peptide / all reads for the bait, averaged over … |

| Variant | screen value |
| --- | --- |
| chain 1 H9M | 0.00238 average fractional NGS count over selection days 2 and 3 (reads of this peptide / all reads for the bait, averaged over … |
| chain 1 H9E | 0.00208 average fractional NGS count over selection days 2 and 3 (reads of this peptide / all reads for the bait, averaged over … |
| chain 1 H9Y | 0.000619 average fractional NGS count over selection days 2 and 3 (reads of this peptide / all reads for the bait, averaged over … |
| chain 1 H9D | 0.0019 average fractional NGS count over selection days 2 and 3 (reads of this peptide / all reads for the bait, averaged over … |
| chain 1 H9Q | 0.00185 average fractional NGS count over selection days 2 and 3 (reads of this peptide / all reads for the bait, averaged over … |
| chain 1 H9W | 0.000883 average fractional NGS count over selection days 2 and 3 (reads of this peptide / all reads for the bait, averaged over … |
| chain 1 M14G | 0.000223 average fractional NGS count over selection days 2 and 3 (reads of this peptide / all reads for the bait, averaged over … |
| chain 1 M14S | 0.00183 average fractional NGS count over selection days 2 and 3 (reads of this peptide / all reads for the bait, averaged over … |
| chain 1 M14A | 0.00114 average fractional NGS count over selection days 2 and 3 (reads of this peptide / all reads for the bait, averaged over … |
| chain 1 M14V | 0.00137 average fractional NGS count over selection days 2 and 3 (reads of this peptide / all reads for the bait, averaged over … |
| chain 1 M14L | 0.000799 average fractional NGS count over selection days 2 and 3 (reads of this peptide / all reads for the bait, averaged over … |
| chain 1 M14T | 0.00238 average fractional NGS count over selection days 2 and 3 (reads of this peptide / all reads for the bait, averaged over … |
| chain 1 F15I | 0.00139 average fractional NGS count over selection days 2 and 3 (reads of this peptide / all reads for the bait, averaged over … |
| chain 1 F15G | 0.00105 average fractional NGS count over selection days 2 and 3 (reads of this peptide / all reads for the bait, averaged over … |
| chain 1 F15N | 0.000153 average fractional NGS count over selection days 2 and 3 (reads of this peptide / all reads for the bait, averaged over … |
| chain 1 F15V | 0.0496 average fractional NGS count over selection days 2 and 3 (reads of this peptide / all reads for the bait, averaged over … |
| chain 1 F15T | 0.00702 average fractional NGS count over selection days 2 and 3 (reads of this peptide / all reads for the bait, averaged over … |
| chain 1 F15P | 0.00458 average fractional NGS count over selection days 2 and 3 (reads of this peptide / all reads for the bait, averaged over … |
| chain 1 F15A | 0.0214 average fractional NGS count over selection days 2 and 3 (reads of this peptide / all reads for the bait, averaged over … |
| chain 1 D11F | 8.75e-05 average fractional NGS count over selection days 2 and 3 (reads of this peptide / all reads for the bait, averaged over … |
| chain 1 D11R | 0.000139 average fractional NGS count over selection days 2 and 3 (reads of this peptide / all reads for the bait, averaged over … |

| Variant | screen value |
| --- | --- |
| chain 1 D11N | 0.00248 average fractional NGS count over selection days 2 and 3 (reads of this peptide / all reads for the bait, averaged over … |
| chain 1 D11I | 0.000389 average fractional NGS count over selection days 2 and 3 (reads of this peptide / all reads for the bait, averaged over … |
| chain 1 D11K | 0.000112 average fractional NGS count over selection days 2 and 3 (reads of this peptide / all reads for the bait, averaged over … |
| chain 1 D11G | 0.000731 average fractional NGS count over selection days 2 and 3 (reads of this peptide / all reads for the bait, averaged over … |
| chain 1 A4Y | 0.000442 average fractional NGS count over selection days 2 and 3 (reads of this peptide / all reads for the bait, averaged over … |
| chain 1 A4H | 0.00203 average fractional NGS count over selection days 2 and 3 (reads of this peptide / all reads for the bait, averaged over … |
| chain 1 A4L | 0.000327 average fractional NGS count over selection days 2 and 3 (reads of this peptide / all reads for the bait, averaged over … |
| chain 1 A4G | 0.000193 average fractional NGS count over selection days 2 and 3 (reads of this peptide / all reads for the bait, averaged over … |
| chain 1 A4Q | 0.000494 average fractional NGS count over selection days 2 and 3 (reads of this peptide / all reads for the bait, averaged over … |
| chain 1 A4D | 0.000369 average fractional NGS count over selection days 2 and 3 (reads of this peptide / all reads for the bait, averaged over … |
| chain 1 A4N | 0.000396 average fractional NGS count over selection days 2 and 3 (reads of this peptide / all reads for the bait, averaged over … |
| chain 1 H2L | 0.00441 average fractional NGS count over selection days 2 and 3 (reads of this peptide / all reads for the bait, averaged over … |
| chain 1 H2K | 0.000959 average fractional NGS count over selection days 2 and 3 (reads of this peptide / all reads for the bait, averaged over … |
| chain 1 H2P | 0.00101 average fractional NGS count over selection days 2 and 3 (reads of this peptide / all reads for the bait, averaged over … |
| chain 1 H2T | 0.00209 average fractional NGS count over selection days 2 and 3 (reads of this peptide / all reads for the bait, averaged over … |
| chain 1 H2Y | 0.000608 average fractional NGS count over selection days 2 and 3 (reads of this peptide / all reads for the bait, averaged over … |
| chain 1 G8S | 0.0101 average fractional NGS count over selection days 2 and 3 (reads of this peptide / all reads for the bait, averaged over … |
| chain 1 G8K | 0.000179 average fractional NGS count over selection days 2 and 3 (reads of this peptide / all reads for the bait, averaged over … |
| chain 1 G8E | 0.00632 average fractional NGS count over selection days 2 and 3 (reads of this peptide / all reads for the bait, averaged over … |
| chain 1 G8Q | 0.0015 average fractional NGS count over selection days 2 and 3 (reads of this peptide / all reads for the bait, averaged over … |

Variants of: B2
Assay: as above

| Variant | screen value |
| --- | --- |
| chain 1 E15L | 0.0492 average fractional NGS count over selection days 2 and 3 (reads of this peptide / all reads for the bait, averaged over … |
| chain 1 E15D | 0.000913 average fractional NGS count over selection days 2 and 3 (reads of this peptide / all reads for the bait, averaged over … |
| chain 1 E15I | 0.0148 average fractional NGS count over selection days 2 and 3 (reads of this peptide / all reads for the bait, averaged over … |
| chain 1 E15V | 0.0659 average fractional NGS count over selection days 2 and 3 (reads of this peptide / all reads for the bait, averaged over … |
| chain 1 E15G | 0.00623 average fractional NGS count over selection days 2 and 3 (reads of this peptide / all reads for the bait, averaged over … |
| chain 1 E15W | 0.00827 average fractional NGS count over selection days 2 and 3 (reads of this peptide / all reads for the bait, averaged over … |
| chain 1 E15T | 0.119 average fractional NGS count over selection days 2 and 3 (reads of this peptide / all reads for the bait, averaged over … |
| chain 1 E15S | 0.0548 average fractional NGS count over selection days 2 and 3 (reads of this peptide / all reads for the bait, averaged over … |
| chain 1 E15Y | 0.0114 average fractional NGS count over selection days 2 and 3 (reads of this peptide / all reads for the bait, averaged over … |
| chain 1 E15F | 0.000557 average fractional NGS count over selection days 2 and 3 (reads of this peptide / all reads for the bait, averaged over … |
| chain 1 E15R | 0.000127 average fractional NGS count over selection days 2 and 3 (reads of this peptide / all reads for the bait, averaged over … |
| chain 1 N3P | 0.00138 average fractional NGS count over selection days 2 and 3 (reads of this peptide / all reads for the bait, averaged over … |
| chain 1 N3Y | 0.000298 average fractional NGS count over selection days 2 and 3 (reads of this peptide / all reads for the bait, averaged over … |
